What was measured:
[1] = biological target: Src family kinase 1 (SFK1) (Lytechinus pictus (endogenous in eggs and egg extract)); experiment: FRET or BRET; FRET by single-photon multi-frequency domain FLIM; cell-free assay, demembranated sperm nuclei decondensed in fertilised egg extract (S10) with ATP-GS, no GTP; fixed, labelled with anti-PLCγ-OG488 (donor) and anti-SFK1-Alexa 546 (acceptor)
[2] = biological target: Src family kinase 1 (SFK1) (Lytechinus pictus (endogenous in eggs and egg extract)); experiment: FRET or BRET; time-resolved FRET by two-photon time-domain FLIM; L. pictus eggs three minutes post-fertilisation (T+3), fixed, labelled with anti-PLCγ-OG488 (donor) and anti-SFK1-Cy5 (acceptor); ROI whole egg or male pronucleus
[3] = biological target: Src family kinase 1 (SFK1) (Lytechinus pictus (endogenous in eggs and egg extract)); experiment: FRET or BRET; time-resolved FRET by two-photon time-domain FLIM; unfertilised L. pictus eggs (T0), fixed, labelled with anti-PLCγ-OG488 (donor) and anti-SFK1-Cy5 (acceptor); FRET efficiency from donor lifetime

FRET efficiency [1]: 5.7% | FRET efficiency % (MPN ROI) [2]: 4.8% | FRET efficiency % (egg ROI) [2]: 5.3% | FRET efficiency % (egg ROI) [3]: 18.9%
Substance: phospholipase Cγ (PLCγ) (enzyme)
